One block for each binder: values may come before it.
Assays:
[1] = molecular target: CD320 extracellular, TC-binding part (MBP cleaved), as used for biochemical analysis of the complex (human) (UniProt Q9NPF0); test: co-expression and co-purification; TC construct and His9-MBP-CD320 construct co-expressed and secreted from Sf21 cells, complex captured from the medium on Ni-NTA through the receptor's tag
[2] = molecular target: CD320(Gly4Ser)4 (flexible linker mutant: EGF-like domain replaced by (Gly4Ser)4) (human) (UniProt Q9NPF0); test: native MS; native ESI-MS of the purified complex and of its individually purified SEC peaks
[3] = molecular target: MBP-tagged, biotinylated CD320 (CD320AVI) (human) (UniProt Q9NPF0); test: ELISA; solid-phase binding assay as a2, TC diluted in buffer with 100 mM Tris-HCl pH 7.5, 0.5 mM CaCl2, 150 mM NaCl; n=5
[4] = molecular target: CD320 extracellular, TC-binding part (MBP cleaved), as used for biochemical analysis of the complex (human) (UniProt Q9NPF0); test: cross-linking; purified complex at 10 mg/ml cross-linked with glutaraldehyde, 1 h RT, then high-mass MALDI-TOF mass spectrometry
[5] = molecular target: MBP-tagged, biotinylated CD320 (CD320AVI) (human) (UniProt Q9NPF0); test: ELISA; solid-phase binding assay as a2, TC diluted in buffer with 100 mM sodium acetate pH 4.8, 0.5 mM CaCl2, 150 mM NaCl; n=5
[6] = molecular target: MBP-tagged, biotinylated CD320 (CD320AVI) (human) (UniProt Q9NPF0); test: ELISA; solid-phase binding assay: biotinylated MBP-tagged receptor on Neutravidin plates, tag-less TC serially diluted in 20 mM Tris pH 7.5, 0.5 mM CaCl2, 150 mM NaCl, 0.05% Tween-20, 1 h RT; TC detected with antibody A-5; single-site fit, n=5
[7] = molecular target: MBP-tagged, biotinylated CD320ΔE88 (Avi Tag) (human) (UniProt Q9NPF0); test: as above

CD320(Gly4Ser)4 (flexible linker mutant: EGF-like domain replaced by (Gly4Ser)4) (human), sequence (Q9NPF0 other isoform, or with tags, fused parts or gaps, change not shown): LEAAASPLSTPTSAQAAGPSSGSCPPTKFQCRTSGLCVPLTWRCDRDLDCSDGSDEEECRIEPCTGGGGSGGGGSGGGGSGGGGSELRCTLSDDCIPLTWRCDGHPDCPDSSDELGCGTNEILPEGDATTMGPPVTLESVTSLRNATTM

stoichiometry N [1]: 1 TCα:CD320
B1: TCα (α domain of human transcobalamin, residues 1-290) (domain or fragment)
chain: EMCEIPEMDSHLVEKLGQHLLPWMDRLSLEHLNPSIYVGLRLSSLQAGTKEDLYLHSLKLGYQQCLLGSAFSEDDGDCQGKPSMGQLALYLLALRANCEFVRGHKGDRLVSQLKWFLEDEKRAIGHDHKGHPHTSYYQYGLGILALCLHQKRVHDSVVDKLLYAVEPFHQGHHSVDTAAMAGLAFTCLKRSNFNPGRRQRITMAIRTVQEEILKAQTPEGHFGNVYSTPLALQFLMTSPMRGAELGTACLKARVALLASLQDGAFQNALMISQLLPVLNHKTYIDLIFPD

stoichiometry N [2]: 1 TC:CD320
Kd [3]: 1 nM
stoichiometry N [4]: 1 TC:CD320
Kd [5]: 58 nM
Kd [6]: 1.5 nM
Kd [7]: 1.5 nM
B2: human transcobalamin (holo-TC, cyanocobalamin-bound) (natural protein)
chain: EMCEIPEMDSHLVEKLGQHLLPWMDRLSLEHLNPSIYVGLRLSSLQAGTKEDLYLHSLKLGYQQCLLGSAFSEDDGDCQGKPSMGQLALYLLALRANCEFVRGHKGDRLVSQLKWFLEDEKRAIGHDHKGHPHTSYYQYGLGILALCLHQKRVHDSVVDKLLYAVEPFHQGHHSVDTAAMAGLAFTCLKRSNFNPGRRQRITMAIRTVQEEILKAQTPEGHFGNVYSTPLALQFLMTSPMRGAELGTACLKARVALLASLQDGAFQNALMISQLLPVLNHKTYIDLIFPDCLAPRVMLEPAAETIPQTQEIISVTLQVLSLLPPYRQSISVLAGSTVEDVLKKAHELGGFTYETQASLSGPYLTSVMGKAAGEREFWQLLRDPNTPLLQGIADYRPKDGETIELRLVSW

From article PMC4947154
